Laboratory results taken from the RNAGym collection of RNA variant scans (doi:10.1073/pnas.2313332121).
Variants at the floor of the assay were thinned out.

B1: TPR 5TU (parent)
chain: GGAUCUUCUCGAUCUAACAAAAAAGACAAAUCUGCCACAAAGCUUGAGAGCAUCUUCGGAUGCAGAGGCGGCAGCCUUCGGUGGCGCGAUAGCGCCAACGUUCUCAACUAUGACACGCAAAACGCGUGCUCCGUUGAAUGGAGUUUAUCAUG

Variants of: B1
Assay: polymerase ribozyme fitness, log enrichment relative to wild type (log ratio); higher = more active; in vitro selection for triplet polymerase activity
Outline: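 Fitness measures genotype enrichment against wild-type enrichment on a logarithmic scale, with inverse-variance-weighted averaging of replicates. The logarithm is base 2, and genotypes were kept only with ≥10 input reads and ≥1 read per output in Illumina sequencing. The sequenced libraries came from one triplicate in vitro selection round, including frozen incubation at −7 °C, of PCR-built, transcribed mutant libraries of each subunit of a heterodimeric triplet polymerase ribozyme.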

Variant | polymerase ribozyme fitness (log ratio)
C79U C85U A115C | ≤ -4.2
C76U A97G G100A A142G | ≤ -4.2
G80C G83U C118A G141C | -3.94
U77G U78C C85U | ≤ -4.2
G80U C85A | -2.27
G81A C118A U148C | -2.6
G81A C85U C132A | -2.23
C76U C96U A97G C99U C103G | ≤ -4.2
U78G C114U C125A C149U | ≤ -4.2
C76U G88U A91C C93U G140C | ≤ -4.2
C76U G84U A98U | -1.66
C79A U90G C95G C116A A119C G141U | ≤ -4.2
G81C A89U C96G | -0.784
U78A G80A U82A A142U | ≤ -4.2
C76G G88C | ≤ -4.2
G81A C95A A98U | -0.289
U77G C93U G117C | ≤ -4.2
G81A C93G | -3.86
C79U G84A C108A C114A C118A U139G | ≤ -4.2
G80C C95U C118G | ≤ -4.2
U78G A89U C93G A106G C118G U145C A150U U151G | ≤ -4.2
C76U C87U G140U U146C | -3.72
C76G G83U C103U | ≤ -4.2
G81A C85U A91U G124C U134A | ≤ -4.2

Variant | polymerase ribozyme fitness (log ratio)
G81C G94U A98U U146G | -0.695
U77A U90A G133U A142C | ≤ -4.2
C79A C103G | ≤ -4.2
G81U G84A | -1.28
U78G A89U A106G C118U | ≤ -4.2
C79G C87U G100U | -2.91
C76U G84U C125U G141U | -3.46
G81A C118A | -1.82
C79U A97G | -3.02
G80C G84C G133A G141C | ≤ -4.2
U82A C96G | -0.244
C79A G86A | ≤ -4.2
C76G G92U A121G G143U | ≤ -4.2
C76G U78C C93U C103G A137G | ≤ -4.2
U77G G84U | ≤ -4.2
C79U C85G U101G | ≤ -4.2
C76G G84U C116A | ≤ -4.2
U77C C85A C108A U111C A113U | ≤ -4.2
C79A C103G C131A | ≤ -4.2
C79A G83A | -3.78
C76U G86U | -2.16
G81C C95A U134A U144C | -2.86
U82A A89G C96G G128U | -4.05
U82A A107U | -2.79

Variant | polymerase ribozyme fitness (log ratio)
C79A C93G C95U U127G C131U G143U | ≤ -4.2
C76G G80C C105U | ≤ -4.2
G80A G84A A120G | -1.33
U77G U82A A110C G136A A137U A138U | ≤ -4.2
U77G G86U U102C G140C | ≤ -4.2
C76U A150U | 0.843
C76U A150C | -3.79
C79U C93U C95U | -4.08
U77C | -2.04
U77A | ≤ -4.2
G81A G86A U148A | -3.94
G81A C87U G100U A115U C116U | -4.04
C76U C95A C96U U151G | ≤ -4.2
C79G A122C G140A | ≤ -4.2
G81A C105U | 1.52
G80U C95G C96A | ≤ -4.2
C76G A91C | ≤ -4.2
G80A G81C C95G U145G | -1.72
U78C C93U C99A A115C | -4.13
G80C C131G | -4.04
G81U G141A | 0.321
U78A C93G C108U | ≤ -4.2
G80A G128U | -3.18
G81A C87U A91U G112U G143A | ≤ -4.2

Variant | polymerase ribozyme fitness (log ratio)
C76G C87G U90A A121C A122U | ≤ -4.2
C76G A91U A106G U135A | ≤ -4.2
C76U G84A U104G U151C | ≤ -4.2
U77G C85U C108A A113G | ≤ -4.2
C79U A91U C125A | ≤ -4.2
G81C G126C U145C | 0.873
U78G G94U | -3.47
U77C C93U G100A A119U A150C | ≤ -4.2
C79G G124U U139C | ≤ -4.2
C76U G88A C99A C103A | ≤ -4.2
G81A C96U C114G A115U | -3.6
U82A A115U U135A | -2.53
G81C G140C | -3.7
U78G U127C | ≤ -4.2
U82A A106G C123G U148G | -4.03
U77G G86U C93G C96A C118G U145G | ≤ -4.2
C76U C85U | -2.03
G81C C103U U134G | -2.49
G81C C125A G140C | -3.98
C79U G81U G92C U127G | ≤ -4.2
U77C G136U C149G | -4.11
G81A C87U A97U | -1.53
C79G U148A | ≤ -4.2
G81A C85A | 0.102

Variant | polymerase ribozyme fitness (log ratio)
G81A G86A | -1.56
U77A C93A A113C | ≤ -4.2
C79U C108G U109G U139G U145C | ≤ -4.2
G80A G141A | -0.333
U77C G94C | -3.48
G80C G92U C96U U135G A150G | ≤ -4.2
G80A C85A A142C | -2.14
U78C A142G | -1.33
U78C A142U | -1.72
C76U G81A | 0.573
C76U U82G G83A C105A U134C U146A U148G | ≤ -4.2
C79A U101G | ≤ -4.2
G80A A119U | -0.405
C76U C85A A106C | ≤ -4.2
C79G U101G U109G U135C U148A | ≤ -4.2
C76U U82C A89G | -1.3
C76G A115G A121U | ≤ -4.2
U78C C85U C103A G141U G152U | ≤ -4.2
C79A A91G A110G | ≤ -4.2
U77G C93A G143A U146C | ≤ -4.2
C79A C116A | -3.87
G80U U109C G143C | -4.04
U77G A107U U144C U145C | ≤ -4.2
C79G C125U A142C U148C U151G | ≤ -4.2

Variant | polymerase ribozyme fitness (log ratio)
C76U G84A U101A | -0.872
G80U G86U G94C C105A U134A | ≤ -4.2
C76U C85U C99G | -1.05
G80A C93U | -1.6
G81U C96U | -1.85
U77C G84U A106C | ≤ -4.2
C79G G84A G100A A110C | ≤ -4.2
C76U | 0.0494
G81C C85G C95G | -3.07
G81A C85A C149U | -0.877
C79G G88C G92A C125G | ≤ -4.2
C76G C87A U111A | ≤ -4.2
G81U C85U A115C G136C | -3.36
C79G G128U | ≤ -4.2
G81A U148C | -1.48
U77G C103G | ≤ -4.2
G81C C85U | 0.0549
G81A A97U | -0.297
G81A C131G G140C | -4
C76G C87G U102G C108A | ≤ -4.2
G81A G94C A106C A113U C116A G133A | ≤ -4.2
C79G C95U | -3.03
U78C | -0.318
U78A | -3.62

Variant | polymerase ribozyme fitness (log ratio)
C76U G84U G143A | -2.57
U78G U90G C131A | ≤ -4.2
G81C C93U U101G | 0.439
U78A U90C | ≤ -4.2
G81A A89C | -0.165
C76A U135C | -1.96
U78G C87G | ≤ -4.2
C76G G94C | ≤ -4.2
C76G U127C A150U | ≤ -4.2
C79A U82A C96A A107U U139A | ≤ -4.2
G80A G83A A106U C116G U139C G143A | ≤ -4.2
G80A C85A | -0.619
U77G A89G C95G C105G C108G | ≤ -4.2
C76U C85A G141C U148C | -3.74
C76A U145C | -0.484
U77G G141A | -4.18
G80A G81A A120C | -0.393
C76G G81A | ≤ -4.2
G81A G152U | -3.09
G81A G152C | -3.29
C79A C96A | -4.03
C79A C96G | ≤ -4.2
G81A C95A | -0.0952
